Laboratory results: US20220396632A1 (VERSEAU THERAPEUTICS, published 2022)
Numbering of substitutions follows the chain as printed. No end group written: not given here. *: point of attachment. Biotin = O=C1N[C@H]2[C@H](CS[C@H]2CCCCC(=O)*)N1

Columns and labels:
[1] = target: T1, Biotin PSGL-1(42-62) L49A peptide (C-terminal Lys-biotin); assay: ELISA, streptavidin-bound Ala peptide
T1 peptide: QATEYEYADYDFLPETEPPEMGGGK

[2] = target: T2, Biotin PSGL-1(42-62) Y51A peptide (C-terminal Lys-biotin); assay: ELISA, streptavidin-bound Ala peptide
T2 peptide: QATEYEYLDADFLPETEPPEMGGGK

[3] = target: T1, Biotin PSGL-1(42-62) L49A peptide; assay: ELISA; against wild-type PSGL-1 42-62
[4] = target: T2, Biotin PSGL-1(42-62) Y51A peptide; assay: ELISA; against wild-type PSGL-1 42-62
[5] = target: T3, Biotin PSGL-1(42-62) L54A peptide (C-terminal Lys-biotin); assay: ELISA, streptavidin-bound Ala peptide
T3 peptide: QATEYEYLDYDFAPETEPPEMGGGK

[6] = target: T4, Biotin PSGL-1(42-62) peptide, unmodified (human, C-terminal Lys-biotin); assay: ELISA, plate-bound peptide
T4 construct: Residues 42-62 followed by GGGK-biotin; also called WT; wild-type
T4 peptide: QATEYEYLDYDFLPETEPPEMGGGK

[7] = target: T4, Biotin PSGL-1(42-62) peptide, unmodified; assay: capture ELISA; against 3 x sY peptide
Experimental: Two ELISA methods were performed. One procedure detected mAb binding to its plate-immobilized target and the other measured the immobilized antibody's ability to capture biotinylated PSGL-1₄₂₋₆₂. […] The plate was incubated for 45 min at 37° C. Plates were washed 3 times with wash buffer (PBS containing 0.05% tween 20, pH 7.4) and a single concentration (2 to 500 nM) or serially diluted (0.002-100 nM) anti-PSGL-1 mAb was added (25 ul/well) in assay buffer into appropriate wells. The plate was incubated for 45 min at 37° C., washed 3 times, and an appropriate HRP-conjugated secondary antibody added (25 ul/well) (HRP goat anti-mouse or anti-human IgG). After 45 min incubation at 37° C., the plate was washed, and antibody bound to plate-immobilized target was determined at A450 nm using HRP substrate (3,3′,5,5′-etramethylbenzidine (TMB)). For each antibody, duplicate values were averaged and assay background was subtracted. Except for the following, ELISAs involving plate-immobilized mAb capturing of biotinylated PSGL-1₄₂₋₆₂ peptides was performed in the same manner as described above: 3 ug/mL/25 ul per well of mAb was coated directly onto microtiter plate wells; biotinylated unmodified or sulfotyrosine PSGL-1₄₂₋₆₂ was serially diluted (3 nM-3 uM) into appropriate wells, and antibody-bound peptide was detected using HRP-streptavidin (Jackson Immunoresearch, Cat. #016-030-084).

[8] = target: T5, Biotin PSGL-1(42-62) F53A peptide (C-terminal Lys-biotin); assay: ELISA; against wild-type PSGL-1 42-62
T5 peptide: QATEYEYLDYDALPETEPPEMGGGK

T57A = target: T6, T57A (C-terminal Lys-biotin); assay: alanine-scan ELISA, streptavidin-immobilized biotin peptide
T6 construct: alanine-scan peptide; also called Biotin PSGL-1(42-62) T57A peptide; 57T
T6 peptide: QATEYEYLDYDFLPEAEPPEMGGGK

E58A = target: T7, E58A (C-terminal Lys-biotin); assay: as above
T7 construct: alanine-scan peptide; also called Biotin PSGL-1(42-62) E58A peptide; 58E
T7 peptide: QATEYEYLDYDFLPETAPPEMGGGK

P59A = target: T8, P59A (C-terminal Lys-biotin); assay: as above
T8 construct: alanine-scan peptide; also called Biotin PSGL-1(42-62) P59A peptide; 59P
T8 peptide: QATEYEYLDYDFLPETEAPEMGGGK

P60A = target: T9, P60A (C-terminal Lys-biotin); assay: as above
T9 construct: alanine-scan peptide; also called Biotin PSGL-1(42-62) P60A peptide; 60P
T9 peptide: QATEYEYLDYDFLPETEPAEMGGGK

E61A = target: T10, E61A (C-terminal Lys-biotin); assay: as above
T10 construct: alanine-scan peptide; also called Biotin PSGL-1(42-62) E61A peptide; 61E
T10 peptide: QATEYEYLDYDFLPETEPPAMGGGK

M62A = target: T11, M62A (C-terminal Lys-biotin); assay: as above
T11 construct: alanine-scan peptide; also called Biotin PSGL-1(42-62) M62A peptide; 62M
T11 peptide: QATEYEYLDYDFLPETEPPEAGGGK

Q42A = target: T12, Q42A (C-terminal Lys-biotin); assay: as above
T12 construct: alanine-scan peptide; also called Biotin PSGL-1(42-62) Q42A peptide; 42Q
T12 peptide: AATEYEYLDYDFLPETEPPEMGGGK

T44A = target: T13, T44A (C-terminal Lys-biotin); assay: as above
T13 construct: alanine-scan peptide; also called Biotin PSGL-1(42-62) T44A peptide; 44T
T13 peptide: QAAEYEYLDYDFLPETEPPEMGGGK

E47A = target: T14, E47A (C-terminal Lys-biotin); assay: as above
T14 construct: alanine-scan peptide; also called Biotin PSGL-1(42-62) E47A peptide; 47E
T14 peptide: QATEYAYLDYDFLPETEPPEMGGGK

Y48A = target: T15, Y48A (C-terminal Lys-biotin); assay: as above
T15 construct: alanine-scan peptide; also called Biotin PSGL-1(42-62) Y48A peptide; 48Y
T15 peptide: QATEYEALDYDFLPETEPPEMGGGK

[9] = target: T16, Biotin PSGL-1(42-62) E45A peptide (C-terminal Lys-biotin); assay: as above
T16 peptide: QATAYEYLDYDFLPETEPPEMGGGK

[10] = target: T2, Biotin PSGL-1(42-62) Y51A peptide; assay: as above
[11] = target: T17, Biotin PSGL-1(56-70) peptide (human); assay: ELISA, plate-bound biotin peptide
T17 peptide: Ac-ETEPPEMLRNSTDTTGK(Biotin)

B1: 16L15 (antibody, V domains shown)
VH: DVKLVESGGGLVKLGGSLKLSCAASGFTFSSYYMSWVRQTPEKRLEWVATISNGGGSTYYPDSVKDRFTISRDNAKNTLYLQMSSLNSEDTAVYYCAKPLYYSNPWFAYWGQGTLVTVSA
VL: DVLLTQTPLSLPVSLGDQASISCRSSQSIVHSNGNTYLEWYLQKPGQSPKLLIYKVSNRFSGVPDRFSGSGSGTDFTLKISRVEAEDLGVYYCFQGSHVPRTFGGGTKLEIK
notes: From mouse immunisation; only variable domains given
For B1, the EC50 [1] was 3.43 nM, the EC50 [2] was 8.83 nM and the EC50Ala/EC50 wt [3] was 3.6 fold. The EC50Ala/EC50 wt [4] was 9.3 fold.

B2: 9F9 (antibody, V domains shown)
VH: EVQLVETGGGLVQPKGSLKLSCAASGFTFNTNAMNWVRQAPGKGLEWVARIRSKSNNYATYYADSVKDRFTISRDDTQSMIYLQMNNLKTEDTGMYYCVRGGSYWYFDVWGAGTTVTVSS
VL: B1 VL with L4M, H31N, R101W
notes: Control anti-PSGL-1 mAb, recombinant; only variable domains given; also called 9F6
Binder B2 has an EC50 [2] of 1.72 nM, an EC50 [5] of 2.31 nM and an EC50Ala/EC50 wt [4] of 10.8 fold.

B3: 20I15 (antibody, V domains shown)
VH: EVKLVESGGGLVQPGGSLSLSCAASGFTFTDYYMSWVRQPPGKALEWLGFIRNKANGYTTEYSASVKGRFTISRDNSQSILYLQMNALRAEDSATYYCARTYLRRGYFDVWGTGTTVTVSS
VL: DIVLTQSPASLAVSLGQRATISCRASKSVSTSGYSYMHWFQQKPGQPPKLLIYLASNLESGVPARFSGSGSGTDFTLNIHPVEEEDAATYYCQHSRELPLTFGAGTKLELK
notes: From mouse immunisation; only variable domains given; also called 20115
With B3 the “fold weaker binding than to sulfotyrosine PSGL-1 42-62” value [6] was greater than 50 fold and the “EC50/EC50 3x(SO3)Y” value [7] was roughly 10 fold.

B4: 19I01 (antibody, V domains shown)
VH: EVQLVESGGGLVKPGGSRKLSCAASGFTFSDYGMHWVRQAPEKGLEWVAYISSGSSTIYYADTVKGRFTISRDNAKNTLFLQMTSLRSEDTAMYYCARGVDGYWGQGTTLTVSS
VL: DVVMTQTPLSLPVSLGDQASISCRSSQSLVHSNGNTYLHWYLQKPGQSPKFLIYKVSNRFSGVPDRFSGSGSGTDFTLKISRVEAEDLGVYFCSQTTHVPLTFGAGTKLELK
notes: From mouse immunisation; only variable domains given; also called 19101
Work on B4 yielded an EC50Ala/EC50 wt [8] of 24.6 fold.

B5: 43B6 (antibody, V domains shown)
VH: EVQLQQSGPDLVKPGALVKISCKASGYSFTAYYIHWVKQSHGKSLEWIGRVNPNTGGTSYNPKFKGKAILNVDKSSSTAYMELRSLTSEDSAVYYCARSGSPYYRYDDWGQGTTLTVSS
VL: ENVLTQSPAIMSASPGEKVTMTCRASSTVNSTYLHWFQQKSGASPKLWIYGSSNLASGVPARFSGSGSGTSYSLTISSVEAEDAATYYCQQYSGYPLTFGAGTTLELK
notes: Control anti-PSGL-1 mAb, recombinant; only variable domains given; also called 43B3
In the case of B5, the EC50 [1] is reported as 2.63 nM, the binding result [5] is reported as “no binding” and the EC50Ala/EC50 wt [3] is reported as 12.2 fold. B5: binds (T57A); binds (E58A); binds (P59A). B5: binds (P60A); binds (E61A); binds (M62A). B5: binds (Q42A); binds (T44A); binds (E47A). B5: binds (Y48A); binds [9]; binds [10].

B6: 10F01 (antibody, IgG4, V domains shown)
VH: EVQLVQSGGGLVQPGGSLRLSCAASGFTFSSYAMSWVRQAPGKGLEWVSALRGGDGGTYHADSVKGRFTISGDSSKNTLYLQMNSLRAEDTAVYYCARRMVGAAYAFDIWGQGTMVTVSS
VL: LPVLTQPHSVSESPGKTVTISCTRSSGSIADNFVQWYRQRPGSAPTTVIYEGDQRPSGVPGRFSGSIDSSSNSASLTISGLQTDDEADYYCQSFDSYNRRTHVVFGGGTKLTVL
In the case of B6, the “fold weaker binding than to sulfotyrosine PSGL-1 42-62” value [6] is reported as greater than 500 fold.

B7: 2E12 (antibody, V domains shown)
VH: QVQLQQSGAELARPGASVKLSCKASGYTFTNYGLNWVKQRTGQGLEWIGEIYPRSGNTYYNEKFKGKATLTADKSSSTAYMQLSSLTSEDSAVYFCATEGAYWGQGTLVTVSA
VL: DIVMTQTPLTLSVTIGQPASISCKSSQSLLHGNGKTYLNWLLQRPGQSPKLLIYLVSKLESGIPDRFSGSGSGTDFTLEISRVEAEDLGIYYCLQSTHFPRTFGGGTKLEIK
notes: Mouse hybridoma mAb; only variable domains given
B7: binds [11].

B8: 03D07 (antibody, IgG4, V domains shown)
VH: EVKLLESGGGLVQPGGSLRLSCAASGFTFSSYALSWVRQAPGKGLEWVSAISGSGGNTYYADSVKGRFTISRDNSKNTLYLQMNSLRAEDTAVYYCAKVVGATNYWGQGTLVTVSS
VL: DIVMTQTPLSLPVTLGQPASISCRSSQSLVYSDGHTYLSWFHQRPGQSPRRLIYKVSIRDSGVPDRFSGSGSGTDFTLKISRVEAEDVGVYYCMQRLQIPLTFGGGTKVEIK
B8 was tested, and the “EC50/EC50 3x(SO3)Y” value [7] was greater than 100 fold.

B9: 18F02 (antibody, V domains shown)
VH: QVQLQQPGAELVKPGASVKLSCKASGYTFTSYWMHWVKQRPGQGLEWIGMIHPNSGRTNYNEKFKSKATLTVDKSSSTAYMQLSSLTSEDSAVYYCARSDYWGQGTTLTVSS
VL: DIVMTQAAFSNPVTLGTSASISCRSSKSLLHSDGITYLYWFLQRPGQSPQLLIYRMSNLASGVPDRFSGSGSGTDFTLRISRVEAEDVGVYYCAQMLEFPRTFGGGTKLEIK
notes: as for B1
With B9 the EC50Ala/EC50 wt [8] was 59.2 fold, the binding result (T57A) was “binds” and the binding result (E58A) was “binds”. B9: binds (P59A); binds (P60A); binds (E61A). B9: binds (M62A); binds (Q42A); binds (T44A). B9: binds (E47A); binds (Y48A); binds [9]. B9: binds [10].

B10: 5E12 (antibody, V domains shown)
VH: EIQLQQSGAELVRPGASVKLSCTASGFNIKDDYIHWVKQRPEQGLEWIGRIDPANGNTKSAPKFQDKATITADTSSNTAYLHLSSLTSEDTAVYYCSIRFAYWGQGTLVTVSA
VL: DVVMTQTPLSLSVSLGDQASISCRSSQSLVYRNGDTYLHWFLQKPGQSPKLLIYKVSNRFSGVPDRFSGSGSGTDFTLKISRVEAEDLGIYFCSQNTHVPYTFGGGTKLEIK
notes: as for B7
B10: binds [11].
